How the values were obtained:
CATPO = CATPO (Scytalidium thermophilum (Humicola insolens), UniProt M4GGR5); test: Inhibition of catechol oxidation; type: biochemical
CATPO E484D variant = CATPO E484D variant (Scytalidium thermophilum (Humicola insolens), UniProt M4GGR5, E503D); test: biochemical; settings: catechol oxidation by E484D; read-out: K i
CATPO E484I variant = CATPO E484I variant (Scytalidium thermophilum (Humicola insolens), UniProt M4GGR5, E503I); test: biochemical; settings: catechol oxidation by E484I; read-out: K i
CATPO E484I variant, sequence (M4GGR5 entry or part of it E503I): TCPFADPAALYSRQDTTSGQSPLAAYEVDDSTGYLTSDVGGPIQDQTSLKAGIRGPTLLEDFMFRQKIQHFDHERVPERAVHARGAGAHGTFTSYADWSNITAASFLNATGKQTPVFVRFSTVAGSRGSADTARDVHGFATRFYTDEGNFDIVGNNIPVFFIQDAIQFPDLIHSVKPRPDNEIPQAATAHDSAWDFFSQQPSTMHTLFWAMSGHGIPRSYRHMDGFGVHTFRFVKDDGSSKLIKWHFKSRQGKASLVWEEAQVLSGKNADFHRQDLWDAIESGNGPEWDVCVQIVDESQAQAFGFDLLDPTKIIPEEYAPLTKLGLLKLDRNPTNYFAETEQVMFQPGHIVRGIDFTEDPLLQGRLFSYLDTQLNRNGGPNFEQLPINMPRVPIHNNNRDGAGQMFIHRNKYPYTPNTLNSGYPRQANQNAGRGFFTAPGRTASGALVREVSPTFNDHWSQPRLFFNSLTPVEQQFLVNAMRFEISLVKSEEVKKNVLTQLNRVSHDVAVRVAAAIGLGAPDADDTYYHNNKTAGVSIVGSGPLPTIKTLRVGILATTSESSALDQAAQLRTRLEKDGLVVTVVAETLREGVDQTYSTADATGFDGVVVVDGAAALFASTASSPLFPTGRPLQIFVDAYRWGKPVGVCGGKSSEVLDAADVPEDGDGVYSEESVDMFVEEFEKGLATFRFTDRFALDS

CATPO T188D variant = CATPO T188D variant (Scytalidium thermophilum (Humicola insolens), UniProt M4GGR5, T207D); test: biochemical; settings: catechol oxidation by T188D; read-out: K i
CATPO T188D variant, sequence (M4GGR5 entry or part of it T207D): as the sequence (M4GGR5 entry or part of it E503I) above

CATPO E484A variant = CATPO E484A variant (Scytalidium thermophilum (Humicola insolens), UniProt M4GGR5, E503A); test: biochemical; settings: catechol oxidation by E484A; read-out: K i
CATPO E484A variant, sequence (M4GGR5 entry or part of it E503A): as the sequence (M4GGR5 entry or part of it E503I) above

CATPO T188A variant = CATPO T188A variant (Scytalidium thermophilum (Humicola insolens), UniProt M4GGR5, T207A); test: biochemical; settings: catechol oxidation by T188A; read-out: K i
CATPO T188A variant, sequence (M4GGR5 entry or part of it T207A): as the sequence (M4GGR5 entry or part of it E503I) above

CATPO T188I variant = CATPO T188I variant (Scytalidium thermophilum (Humicola insolens), UniProt M4GGR5, T207I); test: biochemical; settings: catechol oxidation by T188I; read-out: K i
CATPO T188I variant, sequence (M4GGR5 entry or part of it T207I): as the sequence (M4GGR5 entry or part of it E503I) above

CATPO T188F variant = CATPO T188F variant (Scytalidium thermophilum (Humicola insolens), UniProt M4GGR5, T207F); test: biochemical; settings: catechol oxidation by T188F; read-out: K i
CATPO T188F variant, sequence (M4GGR5 entry or part of it T207F): as the sequence (M4GGR5 entry or part of it E503I) above

[1] = substrate: Oc1ccccc1O; test: Phenol oxidase activity (H2O2-independent) measured spectrophotometrically by product formation at pH 7.0, 60 C, Michaelis-Menten fit.; type: biochemical
Protocol: (§1) All inhibition assays were performed in triplicate.

[2] = substrate: CCn1c(=NN=c2sc3cc(S(=O)(=O)O)ccc3n2CC)sc2cc(S(=O)(=O)O)ccc21; test: purified protein, by the assay type; settings: 60.0 °C
[3] = substrate: Cc1ccc(O)c(O)c1; test: Spectrophotometric phenol oxidase assay without H2O2 at pH 7.0 and 60 °C, initial rates fitted to the Michaelis-Menten equation.; type: biochemical
Protocol: as §1

[4] = substrate: CC(C)(C)c1ccc(O)c(O)c1; test: as above; type: biochemical
Protocol: as §1

[5] = substrate: Oc1ccc(O)cc1; test: as above; type: biochemical
Protocol: as §1

CATPO, sequence (M4GGR5 entry or part of it): as the sequence (M4GGR5 entry or part of it E503I) above
CATPO E484D variant, sequence (M4GGR5 entry or part of it E503D): as the sequence (M4GGR5 entry or part of it E503I) above

For [N-]=[N+]=[N-].[Na+] [Sodium azide, sodium azide], the inhibition type (CATPO; catechol oxidase activity of wild-type CATPO, Lineweaver–Burk) was “competitive”, the Ki (CATPO; catechol oxidation by CATPO, catechol 1 to 100 mM, read-out: K i) was 42 ± 1.2 mM and the Ki (CATPO E484D variant) was 41 ± 4.1 mM. It also gave a Ki (CATPO E484I variant) of 56 ± 1.6 mM, a Ki (CATPO T188D variant) of 55 ± 5 mM and a Ki (CATPO E484A variant) of 74 ± 4.8 mM. For the same molecule, the Ki (CATPO T188A variant) was 42 ± 1.4 mM, the Ki (CATPO T188I variant) was 60 ± 6 mM and the Ki (CATPO T188F variant) was 62 ± 2.5 mM.

B1: T188F (Mycothermus thermophilus; T207F) (protein)
chain: TCPFADPAALYSRQDTTSGQSPLAAYEVDDSTGYLTSDVGGPIQDQTSLKAGIRGPTLLEDFMFRQKIQHFDHERVPERAVHARGAGAHGTFTSYADWSNITAASFLNATGKQTPVFVRFSTVAGSRGSADTARDVHGFATRFYTDEGNFDIVGNNIPVFFIQDAIQFPDLIHSVKPRPDNEIPQAAFAHDSAWDFFSQQPSTMHTLFWAMSGHGIPRSYRHMDGFGVHTFRFVKDDGSSKLIKWHFKSRQGKASLVWEEAQVLSGKNADFHRQDLWDAIESGNGPEWDVCVQIVDESQAQAFGFDLLDPTKIIPEEYAPLTKLGLLKLDRNPTNYFAETEQVMFQPGHIVRGIDFTEDPLLQGRLFSYLDTQLNRNGGPNFEQLPINMPRVPIHNNNRDGAGQMFIHRNKYPYTPNTLNSGYPRQANQNAGRGFFTAPGRTASGALVREVSPTFNDHWSQPRLFFNSLTPVEQQFLVNAMRFEISLVKSEEVKKNVLTQLNRVSHDVAVRVAAAIGLGAPDADDTYYHNNKTAGVSIVGSGPLPTIKTLRVGILATTSESSALDQAAQLRTRLEKDGLVVTVVAETLREGVDQTYSTADATGFDGVVVVDGAAALFASTASSPLFPTGRPLQIFVDAYRWGKPVGVCGGKSSEVLDAADVPEDGDGVYSEESVDMFVEEFEKGLATFRFTDRFALDS
notes: recombinant, pET-28-TEV-CATPO; contains heme b; Rz 0.8
For B1, the Km [1] was 30 ± 1.0 mM, the kcat [1] was 30600 ± 1800 s⁻¹ and the kcat/Km [1] was 1.02e+06 ± 22000 M⁻¹ s⁻¹. For the same molecule, the Km [2] was 45 ± 0.5 mM, the Km [3] was 32 ± 1.0 mM and the Km [4] was 34 ± 0.4 mM. The Km [5] was 42 ± 1.0 mM.

B2: E484D (Mycothermus thermophilus; E503D) (protein)
chain: TCPFADPAALYSRQDTTSGQSPLAAYEVDDSTGYLTSDVGGPIQDQTSLKAGIRGPTLLEDFMFRQKIQHFDHERVPERAVHARGAGAHGTFTSYADWSNITAASFLNATGKQTPVFVRFSTVAGSRGSADTARDVHGFATRFYTDEGNFDIVGNNIPVFFIQDAIQFPDLIHSVKPRPDNEIPQAATAHDSAWDFFSQQPSTMHTLFWAMSGHGIPRSYRHMDGFGVHTFRFVKDDGSSKLIKWHFKSRQGKASLVWEEAQVLSGKNADFHRQDLWDAIESGNGPEWDVCVQIVDESQAQAFGFDLLDPTKIIPEEYAPLTKLGLLKLDRNPTNYFAETEQVMFQPGHIVRGIDFTEDPLLQGRLFSYLDTQLNRNGGPNFEQLPINMPRVPIHNNNRDGAGQMFIHRNKYPYTPNTLNSGYPRQANQNAGRGFFTAPGRTASGALVREVSPTFNDHWSQPRLFFNSLTPVEQQFLVNAMRFDISLVKSEEVKKNVLTQLNRVSHDVAVRVAAAIGLGAPDADDTYYHNNKTAGVSIVGSGPLPTIKTLRVGILATTSESSALDQAAQLRTRLEKDGLVVTVVAETLREGVDQTYSTADATGFDGVVVVDGAAALFASTASSPLFPTGRPLQIFVDAYRWGKPVGVCGGKSSEVLDAADVPEDGDGVYSEESVDMFVEEFEKGLATFRFTDRFALDS
notes: recombinant, pET-28-TEV-CATPO; contains heme d; Rz 0.8
Molecule B2 has a Km [1] of 35 ± 0.5 mM, a kcat [1] of 7400 ± 296 s⁻¹ and a kcat/Km [1] of 210000 ± 10500 M⁻¹ s⁻¹. For the same molecule, the Km [2] was 53 ± 1.0 mM, the Km [3] was 36 ± 0.1 mM and the Km [4] was 38 ± 0.5 mM. For the same molecule, the Km [5] was 46 ± 0.8 mM.

B3: E484A (Mycothermus thermophilus; E503A) (protein)
chain: TCPFADPAALYSRQDTTSGQSPLAAYEVDDSTGYLTSDVGGPIQDQTSLKAGIRGPTLLEDFMFRQKIQHFDHERVPERAVHARGAGAHGTFTSYADWSNITAASFLNATGKQTPVFVRFSTVAGSRGSADTARDVHGFATRFYTDEGNFDIVGNNIPVFFIQDAIQFPDLIHSVKPRPDNEIPQAATAHDSAWDFFSQQPSTMHTLFWAMSGHGIPRSYRHMDGFGVHTFRFVKDDGSSKLIKWHFKSRQGKASLVWEEAQVLSGKNADFHRQDLWDAIESGNGPEWDVCVQIVDESQAQAFGFDLLDPTKIIPEEYAPLTKLGLLKLDRNPTNYFAETEQVMFQPGHIVRGIDFTEDPLLQGRLFSYLDTQLNRNGGPNFEQLPINMPRVPIHNNNRDGAGQMFIHRNKYPYTPNTLNSGYPRQANQNAGRGFFTAPGRTASGALVREVSPTFNDHWSQPRLFFNSLTPVEQQFLVNAMRFAISLVKSEEVKKNVLTQLNRVSHDVAVRVAAAIGLGAPDADDTYYHNNKTAGVSIVGSGPLPTIKTLRVGILATTSESSALDQAAQLRTRLEKDGLVVTVVAETLREGVDQTYSTADATGFDGVVVVDGAAALFASTASSPLFPTGRPLQIFVDAYRWGKPVGVCGGKSSEVLDAADVPEDGDGVYSEESVDMFVEEFEKGLATFRFTDRFALDS
notes: as for B1
With B3 the Km [1] was 30 ± 1.0 mM, the kcat/Km [1] was 1.45e+06 ± 13000 M⁻¹ s⁻¹ and the Km [2] was 46 ± 1.0 mM. The Km [3] was 33 ± 1.0 mM, the Km [4] was 33 ± 0.5 mM and the Km [5] was 43 ± 1.2 mM.
